Data taken from article PMC8519931.

Target: GFP-LC3B (UniProt Q9GZQ8)
Test: co-IP; GFP-LC3 captured on GFP-Trap magnetic beads from HEK-293 T lysates (NP-40 IP lysis buffer: 50 mM Tris-HCl pH 7.5, 150 mM NaCl, 1 mM EDTA, 1% IGEPAL), 1 h at 4 °C; HA-BNIP3 forms detected by blot; cells with or without 100 nM bafilomycin A1 and with or without exogenous FLAG-ULK1

Sequence of HA-BNIP3 (WT) (natural protein) (Q12983 whole entry): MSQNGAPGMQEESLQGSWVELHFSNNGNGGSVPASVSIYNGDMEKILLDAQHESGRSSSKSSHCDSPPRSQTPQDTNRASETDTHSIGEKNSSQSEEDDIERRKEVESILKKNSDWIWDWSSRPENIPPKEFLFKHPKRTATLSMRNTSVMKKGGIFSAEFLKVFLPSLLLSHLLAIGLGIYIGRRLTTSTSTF

Row | fold increase in binding with 100 nM bafilomycin A1 against untreated cells [fold] | Substance
1 | 2.5 | HA-BNIP3 (WT) (natural protein)
2 | 9 | HA-BNIP3 S17E (natural protein)
